According to US20100151486A1, “OSTEOPONTIN FUNCTIONAL EPITOPES, MONOCLONAL ANTIBODIES AGAINST THE EPITOPES AND USES THEREOF” (SHANGHAI NATIONAL ENGINEERING RESEARCH CENTER OF A, priority 2007, published 2010):

System: human vascular endothelial cell (HUVEC)
Assay: HUVEC proliferation by 3H-TdR incorporation
Assay type: cell-based
Conditions: M200+1% BSA+OPN+antibody; 24 hours
Method: HUVEC cell proliferation was measured by the ^3H-TdR incorporation method to determine the protective effect of OPN on cell survival and the inhibitory effect of the anti-OPN antibodies on the OPN protection. Each well of a 96-well plate was inoculated with 2×10^4 HUVECs and cultured in a complete medium for 24 hours. The cells were then treated as following for 24 hours: […]
iv. M200+1% BSA+OPN+murine anti-OPN antibody 1A12 v. M200+1% , BSA+OPN+human-murine chimeric anti-OPN antibody c1A12 vi. M200+1% BSA+OPN+humanized anti-OPN antibody h1A12 vii. M200+1% BSA+OPN+irrelevant antibody
24 hours later, 1 uCi/well ^3H-thymidine was added and, after being incubated at 37° C. for 6 hours, washed once with PBS. The plate was treated with ice-cold 10% trichloroacetic acid/H2O at 4° C. for 10 min, and then washed for two times with, ice-cold ddH2O. Cytolysis was conducted by adding into each well 0.1 ml of 0.5 N NaOH, 0.5% SDS at room temperature for 10 min. After adding 0.2 ml of 0.5 N HCl and mixing, the cells were collected using a multiple cell collector.

B1: 1A12: murine anti-hOPN mAb; VH SEQ ID NO: 4, VL SEQ ID NO: 6; from hybridoma 1A12 (antibody, V domains shown)
VH: QVQLEQSGPELVKPGASVKMSCKSSGYTFTTYVMHWVKQKPGQGLEWIGYINPYNDGSKYNEKFKGKATLTSDKSSNTAYMELSSLTSEDSAVYYCASHYGGSPAYWGQGTLVTVSA
VL: DILMTQTPLSLPVSLGDQASISCRSSQSLVHSNGNTYLHWYLQKPGQSPKLLIYKVSNRFSGVPDRFSGSGSGTDFTLKISRVEAEDLGVYFCSQSTHVPWTFGGGTKLEIKR
modifications: amino acid sequence of the heavy chain variable region in 1A12; amino acid sequence of the light chain variable region in 1A12
notes: murine anti-hOPN mAb; from hybridoma 1A12
3H-TdR incorporation relative to the OPN group: significantly lower
